Test results from FireProtDB (doi:10.1021/bi0525223).

B1: Protein P-30, P22069 (parent)
chain: QDWLTFQKKHITNTRDVDCDNIMSTNLFHCKDKNTFIYSRPEPVKAICKGIIASKNVLTTSEFYLSDCNVTSRPCKYKLKKSTNKFCVTCENQAPVHFVGVGSC

Variants of: B1
Settings: Lithobates pipiens, pH 5.5, sodium acetate 100 mM, reversible: Yes, structure 1ONC, whole UniProt chain shown; for ddG of mutation (higher = less stable) / denaturant midpoint (higher = more stable): 20 °C, GdnHCl, Fluorescence; for Tm / change of melting temperature, mutant - wild type (higher = more stable): Thermal, DSC

| Variant | ddG of mutation (higher = less stable) | denaturant midpoint (higher = more stable) | Tm | change of melting temperature, mutant - wild type (higher = more stable) |
| --- | --- | --- | --- | --- |
| F36Y | 4.66 kcal/mol | 3 M | 79.2 °C | -9.3 °C |
| F28A | 5 kcal/mol | 2.9 M | 78.1 °C | -10.4 °C |
| F28T | 5.31 kcal/mol | 2.8 M | 77.4 °C | -11.1 °C |
| C87A C104A | 7.65 kcal/mol | 2.1 M | 69.4 °C | -19.1 °C |
